In patent publication US20160136234A1 one finds % activity data, which are given here for 1 substance.

Among the targets are CHK2(I157T) (h) (human) (UniProt O96017); FGFR2 (h) (human) (UniProt P21802); Flt4 (h) (human) (UniProt P35916); MELK (h) (human) (UniProt Q14680); MKK7β (h) (human) (UniProt O14733); Met(Y1248C) (h) (human) (UniProt P08581); PASK (h) (human) (UniProt Q96RG2); PKCγ (h) (human) (UniProt P05129); Pim-3 (h) (human) (UniProt Q86V86); Plk3 (h) (human) (UniProt Q9H4B4); Yes (h) (human) (UniProt P07947); cKit(V654A) (h) (human) (UniProt P10721).

Common to all, as to assay: cell-based or functional assay
A further assay addresses T1, ALK4 (h) (human) (UniProt P36896).
T1 sequence (looked up): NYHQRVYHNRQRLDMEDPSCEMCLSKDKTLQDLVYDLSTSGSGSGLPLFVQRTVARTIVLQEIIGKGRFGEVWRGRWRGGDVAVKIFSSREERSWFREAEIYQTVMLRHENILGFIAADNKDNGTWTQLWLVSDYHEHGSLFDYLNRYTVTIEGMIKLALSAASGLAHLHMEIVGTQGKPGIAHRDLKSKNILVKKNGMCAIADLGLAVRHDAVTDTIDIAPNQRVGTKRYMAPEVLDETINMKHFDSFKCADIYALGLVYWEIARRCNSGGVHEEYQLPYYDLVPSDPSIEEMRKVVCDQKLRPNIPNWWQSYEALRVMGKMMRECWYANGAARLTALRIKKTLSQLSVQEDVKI

In a further assay the target is T2, EphA5 (h) (human) (UniProt P54756).
T2 sequence (looked up): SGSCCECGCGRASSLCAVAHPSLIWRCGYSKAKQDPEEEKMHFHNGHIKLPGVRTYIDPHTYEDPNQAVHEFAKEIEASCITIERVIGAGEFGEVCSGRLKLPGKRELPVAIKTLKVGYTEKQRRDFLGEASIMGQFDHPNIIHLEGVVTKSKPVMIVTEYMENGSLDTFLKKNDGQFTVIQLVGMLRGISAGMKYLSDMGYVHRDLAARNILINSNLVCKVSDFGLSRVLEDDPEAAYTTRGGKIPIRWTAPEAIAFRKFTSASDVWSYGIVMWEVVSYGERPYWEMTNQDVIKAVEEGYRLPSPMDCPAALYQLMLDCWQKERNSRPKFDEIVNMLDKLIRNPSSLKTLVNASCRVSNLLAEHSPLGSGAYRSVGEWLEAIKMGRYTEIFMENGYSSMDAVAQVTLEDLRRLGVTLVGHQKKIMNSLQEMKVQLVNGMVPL

The target in another assay is T3, IKKα (h) (human) (UniProt O15111).
T3 sequence (looked up): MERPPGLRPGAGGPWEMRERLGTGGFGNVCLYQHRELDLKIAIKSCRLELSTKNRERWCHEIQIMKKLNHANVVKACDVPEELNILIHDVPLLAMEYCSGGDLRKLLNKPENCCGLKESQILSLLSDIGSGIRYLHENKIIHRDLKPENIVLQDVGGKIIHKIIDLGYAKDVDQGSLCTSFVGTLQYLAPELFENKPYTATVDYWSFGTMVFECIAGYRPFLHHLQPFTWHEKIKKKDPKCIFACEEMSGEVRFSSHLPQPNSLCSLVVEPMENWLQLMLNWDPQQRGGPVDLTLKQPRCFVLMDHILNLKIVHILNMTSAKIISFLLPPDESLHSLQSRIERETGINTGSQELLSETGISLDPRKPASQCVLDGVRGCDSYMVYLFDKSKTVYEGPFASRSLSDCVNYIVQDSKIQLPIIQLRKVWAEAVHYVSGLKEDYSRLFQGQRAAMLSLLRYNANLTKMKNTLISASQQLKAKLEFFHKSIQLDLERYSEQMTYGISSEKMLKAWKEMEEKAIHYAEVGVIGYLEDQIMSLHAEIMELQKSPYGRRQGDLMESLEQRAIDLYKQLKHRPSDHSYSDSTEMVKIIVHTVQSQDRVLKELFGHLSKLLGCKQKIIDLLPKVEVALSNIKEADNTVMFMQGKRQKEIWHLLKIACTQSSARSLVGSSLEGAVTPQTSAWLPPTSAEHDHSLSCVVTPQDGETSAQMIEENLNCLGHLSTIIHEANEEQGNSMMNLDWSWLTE

Assay [1] deals with PDGFRα (V561D) (h) (human) (UniProt P16234).
The next assay concerns the target T4, SAPK3 (h) (human) (UniProt P53778).
T4 sequence (looked up): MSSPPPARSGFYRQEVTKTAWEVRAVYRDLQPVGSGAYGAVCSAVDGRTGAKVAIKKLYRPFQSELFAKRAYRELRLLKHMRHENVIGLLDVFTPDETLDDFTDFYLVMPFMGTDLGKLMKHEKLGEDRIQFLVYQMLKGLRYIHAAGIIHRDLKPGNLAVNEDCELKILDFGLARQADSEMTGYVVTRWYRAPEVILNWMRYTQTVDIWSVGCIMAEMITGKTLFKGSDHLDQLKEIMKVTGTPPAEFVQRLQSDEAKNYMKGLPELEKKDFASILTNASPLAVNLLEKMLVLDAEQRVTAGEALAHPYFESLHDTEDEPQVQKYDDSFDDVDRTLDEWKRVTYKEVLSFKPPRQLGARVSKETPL

In a further assay the target is T5, TAK1 (h) (human) (UniProt O43318).
T5 sequence (looked up): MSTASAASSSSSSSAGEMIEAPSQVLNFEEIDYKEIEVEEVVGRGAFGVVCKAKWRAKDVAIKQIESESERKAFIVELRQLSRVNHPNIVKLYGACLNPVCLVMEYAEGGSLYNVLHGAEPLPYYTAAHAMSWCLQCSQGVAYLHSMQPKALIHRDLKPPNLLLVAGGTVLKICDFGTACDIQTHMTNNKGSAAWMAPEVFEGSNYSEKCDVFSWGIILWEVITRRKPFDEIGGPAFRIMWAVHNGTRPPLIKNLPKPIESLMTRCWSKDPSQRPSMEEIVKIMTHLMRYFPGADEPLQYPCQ

Sequence of PDGFRα (V561D) (h) (human) (P16234 550-1089 V561D limits assumed): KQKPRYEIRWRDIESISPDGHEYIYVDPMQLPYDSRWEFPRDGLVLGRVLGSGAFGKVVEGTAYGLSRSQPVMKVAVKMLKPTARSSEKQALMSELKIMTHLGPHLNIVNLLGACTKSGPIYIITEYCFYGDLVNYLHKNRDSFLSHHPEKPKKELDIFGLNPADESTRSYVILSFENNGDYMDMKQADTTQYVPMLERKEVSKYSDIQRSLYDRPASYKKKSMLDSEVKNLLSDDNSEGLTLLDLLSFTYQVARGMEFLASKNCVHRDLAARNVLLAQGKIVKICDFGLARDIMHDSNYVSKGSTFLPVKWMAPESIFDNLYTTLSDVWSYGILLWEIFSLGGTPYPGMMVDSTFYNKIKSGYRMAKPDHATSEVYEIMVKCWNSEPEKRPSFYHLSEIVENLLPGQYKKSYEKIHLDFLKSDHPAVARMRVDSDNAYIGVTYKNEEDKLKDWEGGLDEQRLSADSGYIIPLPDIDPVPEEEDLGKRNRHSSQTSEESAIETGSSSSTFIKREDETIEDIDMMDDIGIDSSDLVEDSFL
Sequence of cKit(V654A) (h) (human) (P10721 544-976 V654A): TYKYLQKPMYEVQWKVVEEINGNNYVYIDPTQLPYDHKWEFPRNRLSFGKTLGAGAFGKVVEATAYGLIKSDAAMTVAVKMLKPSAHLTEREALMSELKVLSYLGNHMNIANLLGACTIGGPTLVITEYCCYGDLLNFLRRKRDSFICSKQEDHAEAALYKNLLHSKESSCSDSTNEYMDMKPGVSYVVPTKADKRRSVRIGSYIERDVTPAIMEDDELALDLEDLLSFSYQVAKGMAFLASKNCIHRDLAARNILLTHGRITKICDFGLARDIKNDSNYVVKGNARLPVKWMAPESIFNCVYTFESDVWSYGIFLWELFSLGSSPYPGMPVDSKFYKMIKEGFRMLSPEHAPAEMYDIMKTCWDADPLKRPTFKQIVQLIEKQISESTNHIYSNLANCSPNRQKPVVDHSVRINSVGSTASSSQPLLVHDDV
Sequence of FGFR2 (h) (human) (P21802 456-770 limits assumed): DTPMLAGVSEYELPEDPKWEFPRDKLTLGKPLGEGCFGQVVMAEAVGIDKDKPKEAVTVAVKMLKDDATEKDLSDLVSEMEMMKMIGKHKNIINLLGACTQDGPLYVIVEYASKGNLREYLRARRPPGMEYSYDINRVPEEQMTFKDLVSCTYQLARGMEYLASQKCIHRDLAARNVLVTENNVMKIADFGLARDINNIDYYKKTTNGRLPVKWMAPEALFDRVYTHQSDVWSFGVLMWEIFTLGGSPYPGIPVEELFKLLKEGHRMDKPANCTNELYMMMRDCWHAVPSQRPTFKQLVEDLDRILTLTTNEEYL
Sequence of CHK2(I157T) (h) (human) (O96017 5-543 I157T limits assumed): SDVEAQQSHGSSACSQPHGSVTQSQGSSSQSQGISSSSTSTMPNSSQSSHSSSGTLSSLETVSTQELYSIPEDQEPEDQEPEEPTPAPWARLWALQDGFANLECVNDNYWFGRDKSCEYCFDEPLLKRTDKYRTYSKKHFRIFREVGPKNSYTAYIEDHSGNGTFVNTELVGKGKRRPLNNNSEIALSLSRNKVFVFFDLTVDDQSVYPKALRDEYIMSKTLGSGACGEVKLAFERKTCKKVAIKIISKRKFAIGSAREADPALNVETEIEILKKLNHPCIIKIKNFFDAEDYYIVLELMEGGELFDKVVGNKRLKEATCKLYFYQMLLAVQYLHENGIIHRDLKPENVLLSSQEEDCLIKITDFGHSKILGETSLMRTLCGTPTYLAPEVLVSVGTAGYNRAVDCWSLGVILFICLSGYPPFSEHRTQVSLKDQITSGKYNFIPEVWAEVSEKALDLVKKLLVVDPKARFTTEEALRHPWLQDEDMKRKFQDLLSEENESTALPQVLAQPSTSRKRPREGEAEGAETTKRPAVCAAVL
Sequence of Flt4 (h) (human) (P35916 800-1363 limits assumed): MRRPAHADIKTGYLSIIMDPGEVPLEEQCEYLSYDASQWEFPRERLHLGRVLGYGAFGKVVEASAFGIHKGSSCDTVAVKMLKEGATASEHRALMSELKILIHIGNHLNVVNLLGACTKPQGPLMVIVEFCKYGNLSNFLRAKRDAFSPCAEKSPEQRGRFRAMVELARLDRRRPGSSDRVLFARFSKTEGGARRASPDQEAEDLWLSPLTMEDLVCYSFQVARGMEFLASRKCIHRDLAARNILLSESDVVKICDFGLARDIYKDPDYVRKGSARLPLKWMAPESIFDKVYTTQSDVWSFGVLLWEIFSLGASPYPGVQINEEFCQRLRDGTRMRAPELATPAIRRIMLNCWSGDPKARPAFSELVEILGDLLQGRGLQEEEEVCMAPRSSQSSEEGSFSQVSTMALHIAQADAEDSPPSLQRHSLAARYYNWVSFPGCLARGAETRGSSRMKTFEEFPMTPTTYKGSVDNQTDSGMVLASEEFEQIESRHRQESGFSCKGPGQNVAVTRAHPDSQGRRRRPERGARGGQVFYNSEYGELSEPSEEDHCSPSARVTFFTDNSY

For MMI-0300 (peptide), the % activity at 100 µM with ALK4 (h) (human) was 140%; with CHK2(I157T) (h) (human), 43%; with EphA5 (h) (human), 18%; in the assay with FGFR2 (h) (human), 14%; with Flt4 (h) (human), 83%; in the assay with IKKα (h) (human) it was 93%. Besides, the % activity at 100 µM with MELK (h) (human) is 16%; with MKK7β (h) (human) it was 100%; in the assay with Met(Y1248C) (h) (human), 84%; with PASK (h) (human) it was 29%; in assay [1], 82%; with PKCγ (h) (human) it was 89%. In addition, the % activity at 100 µM turned out to be 80% with Pim-3 (h) (human); 127% in the assay with Plk3 (h) (human); 84% with SAPK3 (h) (human); 122% in the assay with TAK1 (h) (human); 67% with Yes (h) (human); 134% with cKit(V654A) (h) (human).
